Substitutions are numbered along the chain they refer to. Names may count otherwise. “And” between values parts separate entries of the source, which are not always exact repeats. Equal values may be shown once. Read-outs that look alike come from different tables or passages of the source.
Columns and labels:
[1] = target: Pex5_(eTPR) + PTS1 (complex of Pex5_(eTPR) with the PTS1 peptide, prepared before ITC) (Trypanosoma cruzi) (UniProt Q4DPQ9); experiment: ITC; Pex14NTD (175 μM) injected into Pex5_(eTPR) + PTS1 (20 μM + 50 μM peptide) in the cell; 20 mM sodium phosphate, 100 mM NaCl, pH 6.5; 25 °C
[2] = target: Pex5eTPR (wild type) mixed beforehand with the PTS1 peptide of MDH (Trypanosoma cruzi) (UniProt Q4DPQ9); experiment: ITC; Pex14NTD in the syringe injected into Pex5eTPR + PTS1 peptide in the cell; 20 mM sodium phosphate, 100 mM NaCl, pH 6.5, 25 °C; independent model
[3] = target: Pex5eTPR (truncated Pex5, extended TPR domain with one Wxxx(F/Y) motif; residues 314-666), Trypanosoma cruzi (Trypanosoma cruzi) (UniProt Q4DPQ9); experiment: ITC; Pex14NTD (175 uM, syringe) injected into Pex5eTPR in the cell, in the absence of PTS1 peptide; 20 mM sodium phosphate, 100 mM NaCl, pH 6.5, 25 °C
[4] = target: 6-FAM labeled PTS1 peptide; experiment: fluorescence polarisation
[5] = target: MDH(GSGS) linker variant (Trypanosoma cruzi); experiment: ITC; Pex5_(eTPR) (250 μM) injected into MDH (25 μM) in the cell; 100 mM Hepes, 150 mM NaCl, 2 mM β-mercaptoethanol, pH 7.5; 25 °C
[6] = target: MDH(Δ62–70) (Trypanosoma cruzi); experiment: as above
[7] = target: Pex5eTPR(Y358A) mixed beforehand with the PTS1 peptide of MDH (Trypanosoma cruzi) (UniProt Q4DPQ9); experiment: ITC; Pex14NTD in the syringe injected into Pex5eTPR + PTS1 peptide in the cell; 20 mM sodium phosphate, 100 mM NaCl, pH 6.5, 25 °C; independent model
[8] = target: Pex5eTPR(N353E) mixed beforehand with the PTS1 peptide of MDH (Trypanosoma cruzi) (UniProt Q4DPQ9); experiment: as above
[9] = target: PTS1 peptide derived from MDH (NH2-ARSKL-COOH) (Trypanosoma cruzi); experiment: ITC; Pex5_(eTPR) with the PTS1 peptide (NH2-ARSKL-COOH); who was in the cell is not stated for the peptide; 25 °C
[10] = target: glycosomal malate dehydrogenase (MDH, residues 1–323) (Trypanosoma cruzi) (UniProt Q4DRD8); experiment: ITC; Pex5_(eTPR) (250 μM) injected into MDH (25 μM) in the cell; 100 mM Hepes, 150 mM NaCl, 2 mM β-mercaptoethanol, pH 7.5; 25 °C
[11] = target: Pex5eTPR(N353E) (Trypanosoma cruzi) (UniProt Q4DPQ9); experiment: ITC; Pex14NTD (175 uM, syringe) injected into Pex5eTPR in the cell, in the absence of PTS1 peptide; 20 mM sodium phosphate, 100 mM NaCl, pH 6.5, 25 °C
[12] = target: Pex5eTPR(Y358A) (Trypanosoma cruzi) (UniProt Q4DPQ9); experiment: as above
[13] = target: Pex5eTPR(GSGS) (Trypanosoma cruzi) (UniProt Q4DPQ9); experiment: as above
[14] = target: glycosomal malate dehydrogenase (MDH), wild type (Trypanosoma cruzi); experiment: ITC; Pex5eTPR in the syringe injected into MDH in the cell; 100 mM Hepes, 150 mM NaCl, 2 mM beta-mercaptoethanol, pH 7.5, 25 °C; independent model; single titrations (replicates), each fitted by itself
[15] = target: MDH(GSGS), glycosomal malate dehydrogenase with a GSGS linker between MDH and its PTS1 (Trypanosoma cruzi); experiment: as above
[16] = target: Pex5_(eTPR)(N353E) + PTS1 peptide (Trypanosoma cruzi) (UniProt Q4DPQ9); experiment: ITC; Pex14NTD (175 μM) injected into Pex5_(eTPR) + PTS1 (20 μM + 50 μM peptide) in the cell; 20 mM sodium phosphate, 100 mM NaCl, pH 6.5; 25 °C
[17] = target: Pex5_(eTPR) with a GSGS-spacer between the Pex5 TPR domain and Wxxx(F/Y) motif + PTS1 peptide (Trypanosoma cruzi) (UniProt Q4DPQ9); experiment: as above
[18] = target: Pex5_(eTPR)(Y358A) + PTS1 peptide (Trypanosoma cruzi) (UniProt Q4DPQ9); experiment: as above
[19] = target: 6-FAM labeled PTS1 peptide; experiment: fluorescence polarisation; remark: listed apart in the source
[20] = target: T1, PTS1 peptide derived from MDH (NH2-ARSKL-COOH) (Trypanosoma cruzi); experiment: ITC; Pex5_(eTPR) with the PTS1 peptide (NH2-ARSKL-COOH); who was in the cell is not stated for the peptide; 25 °C
T1 chain: ARSKL

[21] = target: T2, glycosomal malate dehydrogenase (MDH, residues 1–323) (Trypanosoma cruzi), Q4DRD8; experiment: ITC; Pex5_(eTPR) (250 μM) injected into MDH (25 μM) in the cell; 100 mM Hepes, 150 mM NaCl, 2 mM β-mercaptoethanol, pH 7.5; 25 °C
T2 chain: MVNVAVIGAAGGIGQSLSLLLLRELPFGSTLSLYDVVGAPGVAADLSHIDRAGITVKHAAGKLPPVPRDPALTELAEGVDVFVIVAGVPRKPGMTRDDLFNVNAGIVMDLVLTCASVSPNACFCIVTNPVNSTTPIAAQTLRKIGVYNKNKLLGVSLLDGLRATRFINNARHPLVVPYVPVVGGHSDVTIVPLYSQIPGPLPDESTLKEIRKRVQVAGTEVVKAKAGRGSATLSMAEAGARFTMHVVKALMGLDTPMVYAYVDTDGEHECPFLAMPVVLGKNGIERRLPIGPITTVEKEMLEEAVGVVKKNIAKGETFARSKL

[22] = target: T3, glycosomal malate dehydrogenase (MDH, residues 1–323) (Trypanosoma cruzi, UniProt Q4DRD8 1-323); experiment: as above; settings: both partners purified
T3 construct: glycosomal malate dehydrogenase (MDH), Trypanosoma cruzi, residues 1-323, UniProt Q4DRD8; Tetramer (two dimers related by D2 symmetry) by cryo-EM; also called cargo; MDH tetramer; source: E. coli BL21 (DE3), purified (Ni-NTA, SEC)
T3 sequence (looked up): T2 chain

[23] = target: Pex5_(eTPR) (residues 314–666), truncated Pex5 containing an extended TPR domain with a single Wxxx(F/Y) motif (Trypanosoma cruzi, UniProt Q4DPQ9 316-668); experiment: ITC; Pex5_(eTPR) with the PTS1 peptide (NH2-ARSKL-COOH); who was in the cell is not stated for the peptide; 25 °C; settings: both partners purified

Pex14NTD(Q52A) (domain or fragment)
Kd [1]: 54 nM | dH [1]: -15.7 kcal/mol | stoichiometry N [1]: 0.664 | Ka [2]: 1.86e+07 M⁻¹ | Kd [3]: 17 nM | stoichiometry N [3]: 0.647

Pex5_(eTPR) in presence of excess Pex14NTD (from UniProt Q4DPQ9 316-668) (complex)
Kd [4]: 80 nM

Pex5_(eTPR) (residues 314–666), truncated Pex5 containing an extended TPR domain with a single Wxxx(F/Y) motif (from UniProt Q4DPQ9 316-668) (domain or fragment)
Kd [5]: 148 nM | dH [5]: -5.74 kcal/mol | stoichiometry N [5]: 0.543 | Kd [6]: 1000 nM | dH [6]: -6.07 kcal/mol | stoichiometry N [6]: 0.5

N-terminal domain of Pex14 (Pex14NTD), wild type (domain or fragment)
Ka [7]: 1.24e+07 M⁻¹ | Ka [8]: 2.24e+07 M⁻¹ | Ka [2]: 1.9e+07 M⁻¹

Pex5_(eTPR)(Δ470–480) (from UniProt Q4DPQ9 316-668) (domain or fragment)
Kd [9]: 420 nM | dH [9]: -6.31 kcal/mol | stoichiometry N [9]: 1.04 | Kd [10]: 102 nM | dH [10]: -6.88 kcal/mol | stoichiometry N [10]: 0.452

Pex14NTD(A48F) (domain or fragment)
Kd [1]: 121 nM | dH [1]: -18.3 kcal/mol | stoichiometry N [1]: 0.608 | Ka [2]: 8.24e+06 M⁻¹ | Kd [3]: 59 nM | stoichiometry N [3]: 0.68

N-terminal domain of Pex14 (Pex14NTD; residues 21-85), Trypanosoma cruzi (domain or fragment)
stoichiometry N [3]: 0.657 | Kd [11]: 48 nM | stoichiometry N [11]: 0.738 | Kd [12]: 119 nM | stoichiometry N [12]: 0.762 | Kd [13]: 122 nM | stoichiometry N [13]: 0.568

Pex5eTPR, truncated Pex5 with the extended TPR domain and a single Wxxx(F/Y) motif, wild type (from UniProt Q4DPQ9 314-666) (domain or fragment)
Ka [14]: 2.03e+06 M⁻¹ and 2.77e+06 M⁻¹ and 2.21e+06 M⁻¹ | Kd [14]: 492 nM and 361 nM and 453 nM | stoichiometry N [14]: 0.309 and 0.622 and 0.265 | Ka [15]: 5.79e+06 M⁻¹ and 8.29e+06 M⁻¹ | Kd [15]: 173 nM and 121 nM | stoichiometry N [15]: 0.722 and 0.503

N-terminal domain of Pex14 (Pex14NTD; residues 21–85) (domain or fragment)
Kd [1]: 53 nM | dH [1]: -15.4 kcal/mol | stoichiometry N [1]: 0.671 | Kd [16]: 45 nM | dH [16]: -13.8 kcal/mol | stoichiometry N [16]: 0.659 | Kd [17]: 178 nM | dH [17]: -12.6 kcal/mol | stoichiometry N [17]: 0.7 | Kd [18]: 81 nM | dH [18]: -13.7 kcal/mol | stoichiometry N [18]: 0.88

B1: Pex5_(eTPR) (residues 314–666), truncated Pex5 containing an extended TPR domain with a single Wxxx(F/Y) motif, Q4DPQ9 316-668 (domain or fragment)
chain: MDDGALDNAADVEEWVREYAEAQEQLQRVQNETNYPFEPNNPYMYHDKPMEEGIAMLQLANMAEAALAFEAVCQKEPENVEAWRRLGTTQAENEKDCLAIIALNHARMLDPKDIAVHAALAVSHTNEHNVGAALQSLRSWLLSQPQYEHLGLVDLREVAADEGLDEVPEENYFFAAPSEYRDCCTLLYAAVEMNPNDPQLHASLGVLHNLSHRFDEAAKNFRRAVELRPDDAHMWNKLGATLANGNRPQEALEAYNRALDINPGYVRVMYNMAVSYSNMAQYPLAAKHITRAIALQAGGTNPQGEGSRIATRGLWDLLRMTLNLMDRSDLVEASWQQDLTPFLREFGLEEMAV
modifications: not checked
Kd [19]: 254 nM | dH [20]: -5.02 kcal/mol | stoichiometry N [20]: 0.933 | dH [21]: -6.33 kcal/mol | stoichiometry N [21]: 0.398

B2: Pex5_(eTPR)(R625A, D629A) (domain or fragment)
chain: B1 chain with V16A, R156Q, M234T, R312A, D316A, R344K, E350D
notes: source: E. coli BL21 (DE3), purified as wild type (Ni-NTA, SEC)
dH [22]: -5.38 ± 0.12 kcal/mol | stoichiometry N [22]: 0.5 ± 0.006

B3: Pex5_(eTPR)(P490R) (domain or fragment)
chain: B1 chain with V16A, R156Q, P177R, M234T, R344K, E350D
notes: as for B2
dH [22]: -6.43 ± 0.215 kcal/mol | stoichiometry N [22]: 0.292 ± 0.006

B4: PTS1 peptide derived from MDH (NH2-ARSKL-COOH) (peptide)
peptide: H-ARSKL-OH
notes: short peptide encompassing PTS1 of T. cruzi glycosomal MDH, residues 319-ARSKL-323; also called MDH-derived PTS1 peptide
Kd [23]: 135 ± 19 nM
